Consider one molecule from PMC7015241, “Myopalladin promotes muscle growth through modulation of the serum response factor pathway” (Journal of Cachexia, Sarcopenia and Muscle, 2019).

The experiment concerns the target Filamentous actin (F-actin) (rabbit, UniProt P68135 1-377). Put plainly: co-sedimentation; 1–30 μM polymerized actin incubated with 10 μM MYPN Ig3, Ig4 or Ig3–4 domain for 1 h in 100 μL, 150 000×g for 30 min; SDS-PAGE of supernatants and pellets, densitometry; F-buffer (Tris, KCl, MgCl2, DTT, pH 8.0). The settings on record: both partners purified.

B1: Myopalladin (MYPN) Ig3-4 tandem domain (domain or fragment)
chain: PIFDKRLKHFRVTEGSPVTFTCKIVGIPVPKVYWFKDGKQISKRNEHCKMRREGDGTCSLHIESTTSDDDGNYTIMAANPQGRISCSGHLMVQSLPIRSRLTSAGQSHRGRSRVQERDKEPLQERFFRPHFLQAPGDMVAHEGRLCRLDCKVSGLPPPELTWLLNGQPVLPDASHKMLVRETGVHSLLIDPLTQRDAGTYKCIATNKTGQNSFSLELS
In turn, B1 displayed a Kd of 4.6 µM.
